Source: US20220411523A1

Legend:
[1] = biological target: Human 4-1BB + Mouse 4-1BB domain1,2A,2B(aa24-86) (human; mouse); test: FACS, transiently transfected Expi293 cells (cell A)
[2] = biological target: Human 4-1BB + Mouse 4-1BB domain1,4B,NF(aa24-46,aa139-186) (human; mouse); test: FACS, transiently transfected Expi293 cells (cell F)
Chain of Human 4-1BB + Mouse 4-1BB domain1,4B,NF(aa24-46,aa139-186) (human; mouse) (chain, as listed by the source): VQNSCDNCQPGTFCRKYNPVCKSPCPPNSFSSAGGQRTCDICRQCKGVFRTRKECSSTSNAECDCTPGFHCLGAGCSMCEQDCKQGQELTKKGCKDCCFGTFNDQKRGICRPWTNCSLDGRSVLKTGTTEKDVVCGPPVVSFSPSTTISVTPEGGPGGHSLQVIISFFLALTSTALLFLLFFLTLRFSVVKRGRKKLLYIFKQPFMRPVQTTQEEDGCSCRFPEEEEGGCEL

Chain of Human 4-1BB + Mouse 4-1BB domain1,2A,2B(aa24-86) (human; mouse) (chain, as listed by the source): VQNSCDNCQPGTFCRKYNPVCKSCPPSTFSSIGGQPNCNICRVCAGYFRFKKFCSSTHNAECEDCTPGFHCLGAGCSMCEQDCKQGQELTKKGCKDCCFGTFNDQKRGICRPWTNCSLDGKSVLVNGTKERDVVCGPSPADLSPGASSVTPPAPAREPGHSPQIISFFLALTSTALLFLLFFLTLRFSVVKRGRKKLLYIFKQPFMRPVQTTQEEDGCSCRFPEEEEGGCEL

Mean fluorescence intensity [1]: 948
Mean fluorescence intensity [2]: 1870
B1: Hanke10F4 (antibody, human IgG4 S228P, kappa, V domains shown)
VH: QVQLQESGPGLVKPSETLSITCTVSGSSLTSYGVHWVRQPPGKGLEGLGVIWPGGSTNYNSALMSRLTISKDNSKSQVSLKMSSLTAADTAMYYCARVTGTWYFDVWGQGTTVTVSS
VL: DIQMTQSPSSLSASLGDRVTISCSASQGISNYLNWYQQKPDGTVKLLIYYTSTLHSGVPSRFSGSGSGTDFTLTISSLQPEDVATYYCQQYSKLPWTFGGGTKLEIKR
